According to patent US8148141 (HIPEP LABORATORIES, dated 2012):
Ends that are not written are not given here. carboxyfluorescein = carboxyfluorescein (fluorescent group); ethyldansyl = not defined here

Key:
[1] = biological target: T1, calmodulin (Homo sapiens (Human), UniProt P0DP23 2-149); test: fluorescence of immobilized labeled peptide on glass chip, ex 340 nm / em 480 nm, plate reader, 1.0 uM calmodulin, 25 C, 5 min
[2] = biological target: T1, calmodulin; test: fluorescence of immobilized labeled peptide on glass chip, ex 490 nm / em 520 nm, calmodulin solution, 25 C, 5 min

| increase of the fluorescence intensity (fold) [1] [times] | increase of the fluorescence intensity (fold) [2] [times] | Binder |
| --- | --- | --- |
| ~5 | – | CE(ethyldansyl)LKKLLKLLKKLLKLK(dabsyl)-NH2 (reading uncertain; also: printed as Cys-Glu(Rf1)-Leu-Lys-Lys-Leu-Leu-Lys-Leu-Leu-Lys-Lys-Leu-Leu-Lys-Leu-Lys(Rf2)-NH2, Chemically synthesized designed peptide; Immobilized on a glass substrate in the assay; also called alpha-helix peptide with ethyldansyl-dabsyl labels, N-terminal Cys anchor) [Cys-Glu(Rf1)-Leu-Lys-Lys-Leu-Leu-Lys-Leu-Leu-Lys-Lys-Leu-Leu-Lys-Leu-Lys(Rf2)-NH2] |
| – | ~10 | K(carboxyfluorescein)LKKLLKLLKKLLKLC-NH2 (also called peptide containing carboxyfluorescein) [Lys(Rf3)-Leu-Lys-Lys-Leu-Leu-Lys-Leu-Leu-Lys-Lys-Leu-Leu-Lys-Leu-Cys-NH2] |
| ~5 | – | E(ethyldansyl)LKKLLKLLKKLLKLK(dabsyl)C-NH2 (reading uncertain; also: printed as Glu(Rf1)-Leu-Lys-Lys-Leu-Leu-Lys-Leu-Leu-Lys-Lys-Leu-Leu-Lys-Leu-Lys(Rf2)-Cys-NH2, Chemically synthesized designed peptide; Immobilized on a glass substrate in the assay; also called alpha-helix peptide with ethyldansyl-dabsyl labels, C-terminal Cys anchor) [Glu(Rf1)-Leu-Lys-Lys-Leu-Leu-Lys-Leu-Leu-Lys-Lys-Leu-Leu-Lys-Leu-Lys(Rf2)-Cys-NH2] |
